Consider one protein from FireProtDB (doi:10.1016/j.bbapap.2007.04.008).

Where “and” joins values, the source holds several entries; their conditions need not be identical. Equal entries are not always repeated.

The conditions of the data set: Brassica napus, pH 7, 27 °C, GdnHCl, phosphate 0.02 M, transition: 3, reversible: Yes, whole UniProt chain shown.

B1: Napin-1A wild type, P24565 (protein)
chain: QPQKCQREFQQEQHLRACQQWIRQQLAGSPFQSGPQEGPWLREQCCNELYQEDQVCVCPTLKQAAKSVRVQGQHGPFQSTRIYQIAKNLPNVCNMKQIGTCPFIAIPFFP
Turning to B1, for the setting “CD”, the denaturant m value was 1.8 kcal/mol/M and 1.2 kcal/mol/M; the unfolding free energy was 5.2 kcal/mol and 5.1 kcal/mol. Further, under “Fluorescence”, the denaturant m value was 1.6 kcal/mol/M and 1.3 kcal/mol/M; the unfolding free energy is 5.2 kcal/mol and 5.1 kcal/mol.
